Values quoted from earlier work, collected in paper PMC10385628.
pKd: −log10 of the molar value.

Molecular target: neuropilin-1 (Homo sapiens) (UniProt O14786)
Sequence of UniProt O14786 (O14786 22-856): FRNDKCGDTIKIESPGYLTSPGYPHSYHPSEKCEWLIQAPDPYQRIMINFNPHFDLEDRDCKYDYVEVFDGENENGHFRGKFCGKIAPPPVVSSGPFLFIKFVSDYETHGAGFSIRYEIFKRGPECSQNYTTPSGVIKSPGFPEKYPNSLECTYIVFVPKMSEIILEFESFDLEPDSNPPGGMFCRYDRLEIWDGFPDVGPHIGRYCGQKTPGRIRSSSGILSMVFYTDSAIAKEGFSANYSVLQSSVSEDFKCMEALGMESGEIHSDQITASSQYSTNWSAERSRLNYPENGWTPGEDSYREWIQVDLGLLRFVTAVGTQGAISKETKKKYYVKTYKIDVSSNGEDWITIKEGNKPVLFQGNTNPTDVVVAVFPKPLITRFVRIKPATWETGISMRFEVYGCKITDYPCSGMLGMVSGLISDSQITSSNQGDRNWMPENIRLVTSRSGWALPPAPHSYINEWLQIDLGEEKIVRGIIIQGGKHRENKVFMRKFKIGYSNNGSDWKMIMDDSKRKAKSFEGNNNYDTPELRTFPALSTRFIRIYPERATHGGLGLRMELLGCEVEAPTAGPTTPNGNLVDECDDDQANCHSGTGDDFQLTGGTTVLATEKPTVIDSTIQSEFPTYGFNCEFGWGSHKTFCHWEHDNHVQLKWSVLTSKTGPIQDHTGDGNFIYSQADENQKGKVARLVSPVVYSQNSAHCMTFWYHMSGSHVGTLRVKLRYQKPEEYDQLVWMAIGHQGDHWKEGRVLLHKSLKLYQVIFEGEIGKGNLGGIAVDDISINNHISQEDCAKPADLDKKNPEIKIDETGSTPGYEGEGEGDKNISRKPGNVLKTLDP

In the case of KDKPPR peptide, the pKd is given as 6.30.
